Measurements published in patent publication US20230372552A1, “CONJUGATE OR ITS SALT COMPRISING A GASTRIN-RELEASING PEPTIDE RECEPTOR ANTAGONIST AND USES THEREOF” (ORANO MED, priority 2020, published 2023).

What was measured:
[1] = ^203Pb-conjugate biodistribution study in tumor-free immunocompetent mice
Experimental: After that, the mice were divided in 6 groups of 10, denoted as groups A, B, C, D, E and F respectively, each comprising 5 male and 5 female.
The mice of group A were sacrificed at 5 min post-dose injection; the mice of group B were sacrificed at 30 min post-dose injection; the mice of group C were sacrificed at 1 hour post-dose injection; the mice of group D were sacrificed at 4 hours post-dose injection whereas the mice of group E were sacrificed at 24 hours post-dose injection.
The mice of group F were placed in metabolic cages and their urinary and fecal excretions were collected at 4 hours, 24 hours and 48 hours post-dose injection; they were sacrificed at 48 hours post-dose injection. […]
The tubes were counted for two min. A standard consisting of 5 μL of the solution injected to the mice was also counted for each group of mice. […]
The excretions of the mice of group F were also counted.
The percent injected dose per gram, noted as % ID/g, was calculated for each organ collected (mean±standard deviation) whilst the percent injected dose, noted as % ID, was calculated for the excretions of the mice of group F (mean±standard deviation).

[2] = Comparative biodistribution, ACMP linker, tumor-free immunocompetent mice; type: in vivo, immunocompetent CD1 female mice; conditions: 4 hours post-dose injection
Experimental: The study was aimed at assessing the biodistribution […] conjugate of the invention in that it comprises a linker constituted by a 4-amino-(1-carboxymethyl)piperidinyl group, of formula: […]
5 immunocompetent CD1 female mice, 7-8 weeks old, were injected intravenously with one ^212Pb-ACMP-conjugate dose.
The mice were sacrificed at 4 hour post-dose injection.
(§1) The tubes were counted for two min. Standards consisting of 5 μL of the solutions injected to the mice were also counted. The background was automatically subtracted from the counts. The standards were also used for decay correction.

subcutaneous PC-3 tumors [3] = test: ^212Pb-conjugate biodistribution study in xenograft-bearing mice (10 μCi per 14 ng); type: in vivo, athymic nude mice
Experimental: 15 male athymic nude mice, 7-8 weeks old and weighting 27.74±1.87 g at study initiation, were injected subcutaneously, into the right flank, with 10^6 PC-3 human prostate cancer cells in 100 μL of RPMI-1640 medium/Matrigel™ (v/v: 1/1). […] Then each mouse received intravenously (into a tail vein) one ^212Pb-conjugate dose. […] The tubes were counted for two min. […] The background was automatically subtracted from the counts. The standard was also used for decay correction.

subcutaneous PC-3 tumors [4] = test: Comparative biodistribution, change of chelator (DOTAM vs DOTA), xenograft-bearing mice; type: in vivo, athymic nude mice; conditions: over the first 24 hours
Source text: The instant study was aimed at comparing the biodistribution of the conjugate of the invention, labelled with ^212Pb, in athymic nude mice bearing a human prostate cancer cell tumor with that of a conjugate also labelled with ^212Pb and only differing from the conjugate of the invention in that the chelator corresponds to DOTA (1,4,7,10-tetraazacyclododecane-1,4,7,10-tetraacetic acid) and is of formula:
30 male athymic nude mice, 7-8 weeks old and weighting 27.90±1.9 g at study initiation, were injected subcutaneously, into the right flank, with 10^6 PC-3 human prostate cancer cells in 100 μL of RPMI-1640 medium/Matrigel™ (v/v: 1/1). The tumors were let grow until they reached 200-300 mm^3.
Each mouse of groups A, B and C received intravenously one ^212Pb-DOTAM-conjugate dose whilst each mouse of groups […] received intravenously one ^212Pb-DOTA-conjugate dose.
as §1

Q: Which results are given for `CC(C)C[C@H](NC(=O)C[C@H](O)[C@H](CC(C)C)NC(=O)[C@H](Cc1c[nH]cn1)NC(=O)CNC(=O)[C@@H](NC(=O)[C@H](C)NC(=O)[C@H](Cc1c[nH]c2ccccc12)NC(=O)[C@H](CCC(N)=O)NC(=O)[C@@H](Cc1ccccc1)NC(=O)CCNC(=O)CCNC(=O)CN1CCN(CC(N)=O)CCN(CC(N)=O)CCN(CC(N)=O)CC1)C(C)C)C(N)=O` [^203Pb-conjugate, metal not drawn]?
A: route of elimination (urinary, fecal excretion) ([1]; excretions collected at 4, 24 and 48 hours post-dose): mainly eliminated by renal excretion; biodistribution profile ([1]; male and female mice, 5 min to 48 hours, 10 μCi per 28 ng): safe biodistribution profile

Q: Which “safety profile relative to the -β-Ala-β-Ala- linker conjugate” value [2] does the source give for `CC(C)C[C@H](NC(=O)C[C@H](O)[C@H](CC(C)C)NC(=O)[C@H](Cc1c[nH]cn1)NC(=O)CNC(=O)[C@@H](NC(=O)[C@H](C)NC(=O)[C@H](Cc1c[nH]c2ccccc12)NC(=O)[C@H](CCC(N)=O)NC(=O)[C@@H](Cc1ccccc1)NC(=O)CN1CCC(NC(=O)CN2CCN(CC(N)=O)CCN(CC(N)=O)CCN(CC(N)=O)CC2)CC1)C(C)C)C(N)=O` [^212Pb-ACMP-conjugate, metal not drawn] here?
A: significantly lower safety profile

Q: And the “uptake in kidneys relative to the -β-Ala-β-Ala- linker conjugate” value ([2]; 10 μCi per 4.1 ng)?
A: 5 times

Q: With `CC(C)C[C@H](NC(=O)C[C@H](O)[C@H](CC(C)C)NC(=O)[C@H](Cc1c[nH]cn1)NC(=O)CNC(=O)[C@@H](NC(=O)[C@H](C)NC(=O)[C@H](Cc1c[nH]c2ccccc12)NC(=O)[C@H](CCC(N)=O)NC(=O)[C@@H](Cc1ccccc1)NC(=O)CCNC(=O)CCNC(=O)CN1CCN(CC(N)=O)CCN(CC(N)=O)CCN(CC(N)=O)CC1)C(C)C)C(N)=O` [^212Pb-conjugate, metal not drawn] as the compound, how does the tumor/blood ratio (subcutaneous PC-3 tumors [3]; i.v., 10 μCi per 14 ng) read?
A: high

Q: What about the clearance (subcutaneous PC-3 tumors [3]; mouse, in vivo, iv) of the same compound?
A: fast clearance

Q: And the “tumor retention versus ^212Pb-DOTA-conjugate” value (subcutaneous PC-3 tumors [4])?
A: higher
